Key:
NHase-(BA)P14K = target: T1, NHase-(BA)P14K (Pseudomonas putida, UniProt P97051+P97052); test: product tolerance: 3-cyanopyridine consumption with / without nicotinamide; format: biochemical; settings: 20 mM 3-cyanopyridine, 10 min
T1 construct: gene nthB; pET28a, E. coli
T1 sequence (P97052 1-217): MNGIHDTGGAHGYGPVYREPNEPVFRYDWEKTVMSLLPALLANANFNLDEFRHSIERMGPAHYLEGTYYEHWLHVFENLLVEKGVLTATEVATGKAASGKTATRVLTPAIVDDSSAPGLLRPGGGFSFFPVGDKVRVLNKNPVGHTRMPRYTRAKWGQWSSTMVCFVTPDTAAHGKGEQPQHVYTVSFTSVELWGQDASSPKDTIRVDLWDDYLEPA
T1 sequence (P97051 1-210): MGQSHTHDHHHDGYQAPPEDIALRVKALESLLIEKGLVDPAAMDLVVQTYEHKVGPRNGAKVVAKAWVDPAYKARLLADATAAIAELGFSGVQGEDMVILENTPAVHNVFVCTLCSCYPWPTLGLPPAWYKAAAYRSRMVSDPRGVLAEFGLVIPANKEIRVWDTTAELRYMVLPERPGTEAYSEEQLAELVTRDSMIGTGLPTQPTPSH

wild-type NHase = target: T2, wild-type NHase (Pseudomonas putida, UniProt P97051+P97052); test: as above; format: biochemical; settings: 20 mM 3-cyanopyridine, 10 min
T2 construct: gene nthA; tetramer alpha2beta2; EC 4.2.1.84; tag not clearly stated
T2 sequence (P97051 1-210): T1 sequence (P97051 1-210)
T2 sequence (P97052 1-217): T1 sequence (P97052 1-217)

NHase-(BAP14K) = target: T3, NHase-(BAP14K) (Pseudomonas putida, UniProt P97051+P97052); test: as above; format: biochemical; settings: 20 mM 3-cyanopyridine, 10 min
T3 construct: gene nthB; pET28a, E. coli; cobalt-loaded
T3 sequence (P97052 1-217): T1 sequence (P97052 1-217)
T3 sequence (P97051 1-210): T1 sequence (P97051 1-210)
T3 sequence (O69769 1-127 partner): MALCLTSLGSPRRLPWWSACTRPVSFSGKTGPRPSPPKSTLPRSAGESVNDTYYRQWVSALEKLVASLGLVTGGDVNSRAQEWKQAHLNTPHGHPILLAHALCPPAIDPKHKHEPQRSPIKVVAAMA

[1] = substrate: N#Cc1cccnc1; test: nicotinamide formation, A215; format: biochemical, Pseudomonas putida; settings: 10 mM KPB, 25 °C, 2 min, 10-200 mM substrate, cobalt enzyme
Description: nicotinamide formation, A215 on wild-type NHase

[2] = target: the molecule itself; test: SEC; purified enzymes and marker proteins on a Superdex 200 10/300 GL column, 10 mM KPB; mass from the standard curve of marker proteins, oligomer inferred from the mass

Molecule: NC(=O)c1cccnc1 [nicotinamide]
- reduction ratio (with / without 0.5 M nicotinamide) (NHase-(BA)P14K): 0.86
- reduction ratio (with / without 0.5 M nicotinamide) (wild-type NHase): 0.80
- reduction ratio (with / without 0.5 M nicotinamide) (NHase-(BAP14K)): 0.83

B1: wild-type NHase (Pseudomonas putida) (protein)
chain 1: T1 sequence (P97051 1-210)
chain 2: T1 sequence (P97052 1-217)
notes: tetramer alpha2beta2; EC 4.2.1.84; tag not clearly stated
- Km [1]: 41.2 ± 7.7 mM
- kcat [1]: 335 ± 57.6 s⁻¹
- kcat/Km [1]: 8100 M⁻¹ s⁻¹

B2: NHase-(BA)P14K, fusion nitrile hydratase encoded by the gene (BA)P14K (enzyme, Pseudomonas putida NRRL-18668)
chain: MNGIHDTGGAHGYGPVYREPNEPVFRYDWEKTVMSLLPALLANANFNLDEFRHSIERMGPAHYLEGTYYEHWLHVFENLLVEKGVLTATEVATGKAASGKTATRVLTPAIVDDSSAPGLLRPGGGFSFFPVGDKVRVLNKNPVGHTRMPRYTRAKWGQWSSTMVCFVTPDTAAHGKGEQPQHVYTVSFTSVELWGQDASSPKDTIRVDLWDDYLEPAPGMGQSHTHDHHHDGYQAPPEDIALRVKALESLLIEKGLVDPAAMDLVVQTYEHKVGPRNGAKVVAKAWVDPAYKARLLADATAAIAELGFSGVQGEDMVILENTPAVHNVFVCTLCSCYPWPTLGLPPAWYKAAAYRSRMVSDPRGVLAEFGLVIPANKEIRVWDTTAELRYMVLPERPGTEAYSEEQLAELVTRDSMIGTGLPTQPTPSH
notes: β-subunit of the cobalt nitrile hydratase of Pseudomonas putida NRRL-18668 (B gene); MALDI-TOF indicated the full length of βα; linker, dipeptide proline-glycine; α-subunit of the cobalt nitrile hydratase of Pseudomonas putida NRRL-18668 (A gene); Same polypeptide as m1 but made with P14K co-expressed from the same plasmid; cobalt-containing (0.84 per βα); P14K is not part of the purified enzyme; …
- stoichiometry N [2]: 2
